Data from US20250064890A1, “PROTEIN COMPOSITIONS FOR THE TREATMENT OF INFLAMMATORY DISEASES” (Unichem Laboratories Limited, priority 2021, published 2025).

Experiments:
TNF-α = assay: Multiplex analysis, chemotherapy (5-FU), TR146; assay type: cell-based, human; settings: for TNF-α against chemotherapy induced levels: 5-FU, in words
Procedure: (§1) Oral buccal mucosal cells (TR146) cells were incubated overnight at 37° C. in 5% CO2 incubator. […] The cells were then stimulated with 5-FU (10 mM) for another 24h for chemotherapy and with gamma radiation (3.5 kGy) using Cobalt 60 for radiotherapy. After 24 h, cell culture supernatants were collected from each well and stored at −20° C. till multiplex analysis. For NF-kB estimations, cell lysates were prepared. Levels of biomarkers were estimated using Magpix® multiplex machine. The cells treated with Amifostine (along with 5-FU or radiation) were considered as positive control (PC). Untreated cells (5-FU or radiation alone treated) were used as negative control (NC).
(§2) The percent modulation in each sample was determined as follows:
(§3) [{Concentration of biomarkers (pg/ml) in Control cells (5-FU or radiation alone treated)−Concentration of biomarkers (pg/ml) in SEQ ID NO: 2+5-FU or radiation treated cells)}/Concentration of biomarkers (pg/ml) in Control cells (5-FU or radiation alone treated)]*100

MMP-3 = assay: Multiplex analysis, chemotherapy (5-FU), TR146; assay type: cell-based, human; settings: for MMP-3 against chemotherapy induced levels: 5-FU, in words
Procedure: as §1, §2, §3

VEGF = assay: Multiplex analysis, chemotherapy (5-FU), TR146; assay type: cell-based, human; settings: for VEGF against chemotherapy induced levels: 5-FU, in words
Procedure: as §1, §2, §3

IL-12/IL-23p40 = assay: Multiplex analysis, chemotherapy (5-FU), TR146; assay type: cell-based, human; settings: for IL-12/IL-23p40 against chemotherapy induced levels: 5-FU, in words
Procedure: as §1, §2, §3

IL-6 = assay: Multiplex analysis, chemotherapy (5-FU), TR146; assay type: cell-based, human; settings: for IL-6 against chemotherapy induced levels: 5-FU, in words
Procedure: as §1, §2, §3

IL-1β = assay: Multiplex analysis, chemotherapy (5-FU), TR146; assay type: cell-based, human; settings: for IL-1-β against chemotherapy induced levels: 5-FU, in words
Procedure: as §1, §2, §3

[1] = test system: oral (buccal) mucosa cells (TR146); assay: Restoration of mitochondrial membrane potential (JC-1) against radiation induced damage; assay type: cell-based, human; settings: for MMP: red/green JC-1 fluorescence ratio
Procedure: Oral buccal mucosal cells (TR146) were incubated overnight in 5% CO2 incubator at 37° C. for 24 h. […] After 24 h of treatment, cells were exposed to damage (5-FU 5 mM) for 1.25 h for chemotherapy induced inflammation and exposed to gamma radiation (3.5 kGy) using Cobalt 60 for radiation induced inflammation. After the exposure, the anti-apoptotic effect of SEQ ID NO 2 was determined by restoration of mitochondrial membrane depolarization by JC-1 staining and reduction in apoptotic cell populations (Annexin positive and subG0/G1 cells in cell cycle analysis).
After incubation, the supernatants were discarded and 100 μl of JC1-dye solution (prepared by diluting 1 mM DMSO stock into 10 μM in 1×PBS) was added to each well. The cells were then incubated with the dye in CO2 incubator at 37° C. for 15 min, after which the supernatant was removed, and the cells were washed twice with 1×PBS. 100 μl of 1×PBS was finally added to each well. Red fluorescence (excitation 550 nm, emission 600 nm) and green fluorescence (excitation 485 nm, emission 535 nm) were measured using Biotek Synergy HT plate reader. The mitochondrial membrane potential (Δψm) was calculated as the ratio of intensity of red fluorescence to intensity of green fluorescence.
The percentage increase/restoration in mitochondrial membrane potential (MMP) was calculated as: % Increase=[(R−X)/R]*100 • Where, X=Δψm corresponding to TI+5-FU treated cells or TI+radiation treated cells; R=Δψm corresponding to control cells (FU damaged or Radiation damaged alone)

[2] = test system: 5-Fluorouracil induced OM; assay: Histopathology score of cheek pouch, 5-FU induced OM in hamsters; assay type: in vivo, golden Syrian hamsters; settings: for Histopathology score, Mean: scale 1-5
Procedure: (§4) To induce OM, animals were administered (except normal control) 5-Fluorouracil (5-FU) by intraperitoneal route at doses of 60 mg/kg & 40 mg/kg respectively on first two days. On Day 4, under anesthesia, with aim of enhancing OM, mechanical irritation of the oral mucosa were done using wire brush. Treatment was initiated from Day 4 to Day 12. For group 3 animals 100 μl of vehicle comprising of standard drug Dexamethasone at 0.1 mg was instilled in buccal cheek pouch. For group 4, 5 and 6 animals 100 μl of vehicle comprising of SEQ ID NO. 2 at 0.25 mg, 0.5 mg & 1 mg, respectively was instilled in buccal cheek pouch. At the end of treatment period, cheek pouch of the hamsters was exposed, Mucositis scoring was carried out and images were captured. The animals were then humanely sacrificed, cheek pouch/jugular mucosa were isolated and used for biomarker estimation and histopathological investigation by using ELISA method and Hematoxylin and Eosin (H&E) staining, respectively.
For histopathology the oral mucosa tissues were sectioned 5 μm thickness and stained with hematoxylin-eosin staining. For study histopathological the sections were analyzed by light microscopy.
The pouch/jugular mucosa were observed and scored for infiltration of inflammatory cells, vasodilatation, presence of hemorrhagic areas, edema, ulcerations, and abscesses.

[3] = test system: 5-Fluorouracil induced OM; assay: Mucositis severity score, 5-FU induced OM in hamsters; assay type: in vivo, golden Syrian hamsters; settings: for Mucositis score: after 12 days, scale 0-5
Procedure: as §4
Mucositis severity was scored as given below: • Cheek pouch completely healthy—0; Mild erythema—1; • Severe erythema and superficial erosion—2; Formation of ulcers in one or more places—3; Cumulative ulcer formation about 50% of cheek pouch surface area—4; Complete ulceration of the cheek pouch mucosa—5.

[4] = 100 μg/ml + Radiation (3.5 kGy)
[5] = hamsters suffering from OM, in words

B1: SEQ ID NO 2: recombinant lectin, variant of the S. rolfsii lectin amino acid sequence (reported as Rec-2 in WO 2010/095143) (protein)
chain: TYKITVRVYQTNPDAFFHPVEKTVWKYANGGTWTITDDQHVLTMGGSGTSGTLRFHADNGESFTATFGVHNYKRWCDIVTNLAADETGMVINQQYYSQKNREEARERQLSNYQVKNAKGRNFQIVYTEAEGNDLHANLIIG
Percentage Inhibition TNF-α (TNF-α; 0.1 μg/ml + 5-FU (10 mM)): 13.3%
Percentage Inhibition TNF-α (TNF-α; 10 μg/ml + 5-FU (10 mM)): 10%
Percentage Inhibition TNF-α (TNF-α; 25 μg/ml + 5-FU (10 mM)): 10%
Percentage Inhibition TNF-α (TNF-α; 50 μg/ml + 5-FU (10 mM)): 13.3%
Percentage Inhibition TNF-α (TNF-α; 100 μg/ml + 5-FU (10 mM)): 6.6%
TNF-α against chemotherapy induced levels (TNF-α): lowering of levels
TNF-α against chemotherapy induced levels (TNF-α; listed as test items): downregulation
Percentage Inhibition MMP-3 (MMP-3; 0.1 μg/ml + 5-FU (10 mM)): 22%
Percentage Inhibition MMP-3 (MMP-3; 10 μg/ml + 5-FU (10 mM)): 29.5%
Percentage Inhibition MMP-3 (MMP-3; 25 μg/ml + 5-FU (10 mM)): 30.6%
Percentage Inhibition MMP-3 (MMP-3; 50 μg/ml + 5-FU (10 mM)): 27.3%
Percentage Inhibition MMP-3 (MMP-3; 100 μg/ml + 5-FU (10 mM)): 8.8%
MMP-3 against chemotherapy induced levels (MMP-3): lowering of levels
MMP-3 against chemotherapy induced levels (MMP-3; listed as test items): downregulation
Percentage Inhibition VGEF (VEGF; 0.1 μg/ml + 5-FU (10 mM)): 25%
Percentage Inhibition VGEF (VEGF; 10 μg/ml + 5-FU (10 mM)): 24.4%
Percentage Inhibition VGEF (VEGF; 25 μg/ml + 5-FU (10 mM)): 28%
Percentage Inhibition VGEF (VEGF; 50 μg/ml + 5-FU (10 mM)): 37.8%
Percentage Inhibition VGEF (VEGF; 100 μg/ml + 5-FU (10 mM)): 41.7%
VEGF against chemotherapy induced levels (VEGF): lowering of levels
VEGF against chemotherapy induced levels (VEGF; listed as test items): downregulation
Percentage Inhibition IL-12/IL-23p40 (IL-12/IL-23p40; 0.1 μg/ml + 5-FU (10 mM)): 13.5%
Percentage Inhibition IL-12/IL-23p40 (IL-12/IL-23p40; 10 μg/ml + 5-FU (10 mM)): 33.8%
Percentage Inhibition IL-12/IL-23p40 (IL-12/IL-23p40; 25 μg/ml + 5-FU (10 mM)): 36.8%
Percentage Inhibition IL-12/IL-23p40 (IL-12/IL-23p40; 50 μg/ml + 5-FU (10 mM)): 42.6%
Percentage Inhibition IL-12/IL-23p40 (IL-12/IL-23p40; 100 μg/ml + 5-FU (10 mM)): 36.6%
IL-12/IL-23p40 against chemotherapy induced levels (IL-12/IL-23p40): lowering of levels
IL-12/IL-23p40 against chemotherapy induced levels (IL-12/IL-23p40; listed as test items): downregulation
Percentage Inhibition IL-6 (IL-6; 0.1 μg/ml + 5-FU (10 mM)): 5.4%
Percentage Inhibition IL-6 (IL-6; 10 μg/ml + 5-FU (10 mM)): 7.8%
Percentage Inhibition IL-6 (IL-6; 25 μg/ml + 5-FU (10 mM)): 18.2%
Percentage Inhibition IL-6 (IL-6; 50 μg/ml + 5-FU (10 mM)): 38.6%
Percentage Inhibition IL-6 (IL-6; 100 μg/ml + 5-FU (10 mM)): 42.2%
IL-6 against chemotherapy induced levels (IL-6): lowering of levels
IL-6 against chemotherapy induced levels (IL-6; listed as test items): downregulation
Percentage Inhibition IL-1β (IL-1β; 0.1 μg/ml + 5-FU (10 mM)): 5.5%
Percentage Inhibition IL-1β (IL-1β; 10 μg/ml + 5-FU (10 mM)): 3.6%
Percentage Inhibition IL-1β (IL-1β; 25 μg/ml + 5-FU (10 mM)): 11%
Percentage Inhibition IL-1β (IL-1β; 50 μg/ml + 5-FU (10 mM)): 29.1%
Percentage Inhibition IL-1β (IL-1β; 100 μg/ml + 5-FU (10 mM)): 23.5%
IL-1-β against chemotherapy induced levels (IL-1β): lowering of levels
IL-1-β against chemotherapy induced levels (IL-1β; listed as test items): downregulation
MMP ([1]; 0.01 μg/ml + Radiation (3.5 kGy)): 5.76
% Increase in MMP (with respect to control) ([1]; 1 μg/ml + Radiation (3.5 kGy)): 36.6%
% Increase in MMP (with respect to control) ([1]; 10 μg/ml + Radiation (3.5 kGy)): 17.8%
MMP ([1]; 10 μg/ml + Radiation (3.5 kGy)): 5.43
MMP ([1]; 50 μg/ml + Radiation (3.5 kGy)): 6.29
% Increase in MMP (with respect to control) [1, 4]: 7.9%
MMP [1, 4]: 4.97
Histopathology score, Mean ([2]; G4, 0.25 mg/Animal): 3
Histopathology score, Mean ([2]; G5, 0.5 mg/Animal): 2
Histopathology score, Mean ([2]; G6, 1 mg/Animal): 2.8
histology score as compared to the untreated subjects [2, 5]: reduction
Mucositis score ([3]; G4, 0.25 mg/animal): 3.00±0.4
Mucositis score ([3]; G5, 0.5 mg/animal): 2.8±0.3
Mucositis score ([3]; G6, 1 mg/animal): 4.00±0.3
mucositis score as compared to the untreated subjects [3, 5]: reduction
